Test: yeast display, Sf9 membrane polyspecificity reagent, FACS + sequencing; frameworks hold sequencing errors
Method in brief: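 A nanobody's polyreactivity label depends on the gate it was sorted from. Yeast display cells were stained with 10% biotinylated, detergent-solubilized Sf9 membrane reagent for 1 hour at 4 °C, enriched on streptavidin microbeads and sorted by FACS. The low and high (top ~1%) gates were set on anti-HA fluorescence for expression and streptavidin fluorescence for reagent binding.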

Sequence | polyreactivity (PSR sort gate)
QVQLVESGGGLVQAGGSLRLSCAASGSIFVLNAMGWYRQAPGKERELVAAITNVGSTYYADSVKGRFTISRDNAKNTVYLQMNSLKPEDTAVYYCNAVVATSKYTDYYWGQGTQVTVSS | low polyreactivity
QVQLVESGGGLVQAGGSLRLSCAASGRIFDCYAMGWYRQAPRKEREFVASISRRGGSTYYADSVKGRFTISRDNAKNTVYLQMNSLKPEDTAVYYCAADAFFRLDYYYWGQGTQVTVSS | high polyreactivity
QVQLVESGGGLVQAGGSLRLRCAASGSTFTYYAMGWYRQAPGKERELVAVSNKSGGRTNYADSVKGRFTISRDNAKNTVYLQMNSLKPEDTAVYYCNKVTRREGSYGYPSRYDYWGQGTQVTVSS | high polyreactivity
QVQLVESGGGLVQAGGSLRLSCAASGSIFNRYAMGWYRQAPGKEREFVARISKRGGGTYYADSVKGRFTISRDNAKNTVYLQMNSLKPEDTAGYYCNAGVPSAMDYWGQGTQVTVSS | high polyreactivity
QVQLVESGGGLVQAGGSLRLTCAASGIIYYVYAMVWYRQAPGKERELVAAITSGGTTYYADSVKGRFTISRDNAKNTVYLQMNSLKPEDTAVYYCAAARGGGRTYGYWGQGTQVTVSS | high polyreactivity
QVQLVESGGGLVQAGGSLRLSCAPSGLTIVTYAMGWYRQAPRKERELVAAISRSGGSTYYADSVKGRFTISRDNAKNTVYLQMNSLKPEDSAVYYCNAYSYVDLWAVYRYDYWGQGTQVTVSS | high polyreactivity
QVQLVESGGGLVQAGGSLRLSCAASGRIFWYYAMGWYRQAPGKERELVADISTGGSTNYADSVKGRFTISRDNAKNTVYLQMNSLKPEDTAVYYCATTVPVILYVTPSTYAVVGYEYWGQGTQVTVSS | low polyreactivity
QVQLEESGGGLVQAGGSLRLSCAASGLTISWNAMGWYRQAPGKERELVAAISSRGGSTYYADSVKARFKISRDNAKNTVYLQMNSLKPEETAVYYCAAEGYTYYPVYSTRMYYWGQGTQVTVLS | low polyreactivity
QVQLVESGGGLVQAGGRLRLSCAASGSIFYRNAMGWYRQAPGKERELVAAIRYSGDNTYYADSVKGRFTISRDNAKNTVYLQMNSLKPEDTAVYYCAADFPDYEYWGQGTQVTVSS | high polyreactivity
QVQLVESGGGLVQAGGSLRLSCAASGGTFVTYTMAWYRQAPGKEREFVAAISRSGGSTYYADSVKGRFTISRDNAKNTVYLQMNSLKPEDTAVYYCATRGRYYGPGYDYWGQGTQVTVSS | high polyreactivity
QVQLVESGGGLVQAGGSLRLSCAASGFIFTYNAMGWYRQAPGKERELVAAMNSGGITYYADSVKGRFTISRDNAKNPVYLQMNSLKPEDTAVYYCAKRRQIGWITYDYCGQGTQVTVSS | low polyreactivity
QVRRVESGGGLVQAGGSLRLSCAASGSTFPWYAMGWYRQAPGTERELVASITSGTTTNYADSVKGRFTISRDNAKNTVYLEMNSLKPEDTAVYYCAASWVYPYDYWGQGTQVTVSS | low polyreactivity
QVQLVQSGGGLVQAGGSLRLSCAASGSTFYTYGLGWYRQAPGKARQFVAAISYRGGSTYYADSVKGRFTISRDNAKNTVYLQMNSLKPEVTAVYYCYVDGVVVGTIRGGYDYWGQGTQVTVSS | low polyreactivity
QVQLVESGGGLVQAGGSLRLSCAASGSTFYVYAMGWYRQAPGKERELVAAISKRGGTTYYADSVKGRFTISRDNAKNTVYLQMNSLKPEDTAVYYCAADVRSPSAGYQGGYWGQGTQVTVSS | high polyreactivity
QVQLVDSGGGLVQAGGSLRLICAASGITFYYYAMGWYRQAPGKERELVAAISSRGGSTYYADSVKGRFTISRDNAKNTVYLQMNSLKPEDTAVYYWAALYGVSEEDDYWGQGTQVTVSS | high polyreactivity
QVQLVESGGGLVQAGGSLRLICAASGSIFIHNAMGWYRPAPGKERELVAGITTGGSTYYADSVKGRFTISRDNAKNTVYLQMNSLKPEDTAVYYCAVKRPVALTRGNWVTEARDYWGQGTQVTVSS | low polyreactivity
QLQLVESGGGLVQAGGSLRLSCAASGRTFSTYAMGWYRQAPGKEIELVAAISSGGGRTYYADSVKGRFTISRDNAKNTVYLQMNSLKQEDTAVYYCAADRYFRSRRSYEYWGQGTQVTVSS | low polyreactivity
QVQILESGVGLVQPGGSLRLICAASGITLQFYALGWYRKATGKEAELVAAISISGGRTYYADSVKGRFTISRDNAKNTFYLQMNSLKPEDTAVYYCAAYLQRAYRYGYWGQGTQVTVSS | high polyreactivity
QVQLVESGAGIVQAGGSLRVSSAASGSIFHSYAMGWYRQEPGKERELVAGITYRTGSTYYADSVKGRVTNSRDNAKNTVYFQMNSLKPEDTAVYYCAAGYYSRYFEAFEYYYWGLGTQVTVSS | high polyreactivity
QVQLVESGGGLVQAGGSLRLSCAASGGIFDINAMGWYRQAPGKERELVAAISWGGGSTYYADSVKGRFTISRDNAKNTVYLQMNSLKPEDTAVYYCAAESVSIQPTPDEDYWGQGTQVTVSS | high polyreactivity
QVQLVESGGGLVQAGGSLRLSCAASGSTFYSYAMGWYRPAPGKERELVAAITTSGGSTYYADSVKGRFTISRDNAKNTVYLQMNSLKPEDTAVYYCNAYFIYEGGWYYKAQYDYWGQGTQVTVSS | low polyreactivity
QVQLVESGGGLVQAGGSLRLSCAASGLIFRRYAMGWYRQAPGKERELVATINSGGSTNYADSVKGRFTISRDNAKNTVYLQMNSLKPEDTAVYYCAAKKFRRFTKWYDYWGQGTQVTVSS | high polyreactivity

Sequence | polyreactivity (PSR sort gate)
QVQLVESGGVLVQAGGSLRVSCAASGGIFPRYTMGWSRQAPGKERELVASITRSGASTYYADSVKGRFTISRDKAKNTVYLPINSQKPEDTWFYYVISDVYVYSVTSHYTSSRLDYWGQGTQVTVSS | high polyreactivity
QVQLVESGGGLVQAGGSHRLSCAASGGTFNTNAMGWYRQAPGKERELVATIRGGVITTYADSVKGRFTISRDNAKNTVYLQMNSLKPEDTAVYYFNKDNAPYAVSSIFGARDYWGQGTQVTVSS | low polyreactivity
QVQLVESGGGLVQAGGSLRLSCAASGSIFEPYAMGGYRQAPWTERELVAAIRVSGGSTYYADSVKGRFTISRDNAKNTVYLQMNSLKPEDTAVYYCGPDWWSRYYYWGQGTQVTVSS | high polyreactivity
QVQLVESGGGLVQAGGSLRLSCAASGFTFGVYAMGWYRQAPGKERELVAAISSTGGSTYYADSVKGRFRISRDNAKNTVYLQMKSLKPEDTAVYYCAADPYPEYIRYLPGVVYWGQGTQVTVSS | low polyreactivity
QVQLVESGGGLVQAGGSLRLSCAASGRTFNTYAMGWYRQAPGKERELVAAISSGGRTYYADSVKGRFTISRDNAKNTVYLQMNSLKPEDTAVYYCAAKPFQYRTVYEYWGQGTQVTVSS | high polyreactivity
QVQLVESGGGLVQAGGSLRLSCAASGSTFGSNDMGWYRPAPGKERELVAGITWSGGSTFYADSVKGRFTISRDTAKNTVYLQMNSLKPEDTAVYYCAVSTEVNRYHAKYDYWGQGTQVTVSS | low polyreactivity
QVQLVESGGGLVQAGGSLRLSCAASGSIFGSNTMGWYRQAPGKERELVAAINSSGGSTYYADSVKGRFTISRDNAKNTVYLQMNSLKPEDTEVYYCNAASYRFFPYLYYYWGQGTQVTVSS | high polyreactivity
QVQHVESGGGLVQAGGSLRLSCAASAFTFRFYAMGWYRQAPAKEMELVAAISWSGTSTYYADSVKGRFTLSRDNAKNTVYLQMNSLIQDDTAVYYCATQYRRRQRKYDYWGQGTQVTVSS | high polyreactivity
QVQLVESGRGLVQAGGSLRLSCAASGYIFVYNAMGWYRQAPGKERELVAAITDGGGSTYADSVKGRFTISRDNAKNTVYLQMMSLNPEDTADYYCAARYSDTTWYVLYYYWGQGTQVTVSS | low polyreactivity
QVQLVESGGGLVQAGGSLRLSCAASGFIFRTYAMGWYRQAPGKERELVAAITYSAGSTYYADSVKGRFTISRDNAKNTVYLQMNSLKPEDTAVYYCNVRKTWYGYSVTGRYDYWGQGTQVTVSS | low polyreactivity
QVHLVESGGGLVQAGGSLRLSCAASGSTFRFYAMGWYRQAPGKERELVATISRTGSTNYADSVKGRFTISRDNAKNTVYLQMNSLKPEDTAVYYCAAQRRRYPGYVQDDYWGQGTQVTVSS | high polyreactivity
QVQIVESGGGLVQAGGSLRISCSASGRTLRSYAMGWYRHAPGKERELVAAISRSGGSTNYADSVKGRFTISHDNAKNTVYLQMNSLKPEETAVYYCNTYSTSWKMDYWGQGTKVTVSS | high polyreactivity
QVQLVESGGGLVQAGGSLRLSCAASGSTFYYYAMGWYRQAPGKERELVAAISRGGSTYYADSVKGRFTISRDNAKNTVYLQMNSLKPEDTAVYYCAVDARPYRQIYLYEYWGQGTQVTVSS | low polyreactivity
QVQLVDSGGGLVQAGGSLRLSCAASGSTFLFNAMGWYRQAPGNVREVVAGISSSGGSTHYADSVKGRFTISRDNAKNTVYLQMNSLKPEDTAVYYCNAQQYLPSEGDYWGQGTQVTVSS | low polyreactivity
QVQLVESGGGLVQAGGSLRLSCAASGFTFGTNAMGWYSQAPGKERELVAAISGRVGSTYYADSVKGRFTISRDNAKNTVYFLMNSLKPEDTAVYYCAADTWKTWSPYLYYTYDSWGQGTQVTVSS | low polyreactivity
QVQLVESGGGLVQAGGSLRLSCAASGRIFEGYAMGWYRQAPGKEELVAAITSDASTYYADSVKGRFTISRDNAKNTVYLQMNSLNPEDTAVYYCNAYTRGLEYDYWGQGTQVTVSS | high polyreactivity
QVQLVESGGGLVQAGGSLRLSCAASGSIFSKNAIGWYRQAPGKERELVDAISASGASTYYADSVKGRFTISRDNEKNTVYLQMNSLKPEDTAVYYCNADVSGVSSYGRSYEFYYWGQGTQVTVSS | low polyreactivity
QVQLVESGGGLVQAGGSLRLSCAASGRTFYIYAMGWYRQAPGKERELVAAITSVGSTNYADSVKGRFTISRDNAKNTVYLQMNSLKPEDTAVYYCAAASTEGTSGDYDYWGQGTQVTVSS | low polyreactivity
QVQLVESGGGLVQAGGSLRLSCAASGFTFTGNVMGWYRQAPGKERELVAAISSRGVSTYYADSVKGRFTISRDNAKNTVYLQMNSLKPEDTAVYYCAVSRIVDFGQKMYYWGQGTQVTVSS | high polyreactivity
QVQLVESGGGLVQAGGSLRLSCDASGSIFPLYAMGWYRQAPGKERELVAAITSGTSTNYADSVKGRFTISRDNAKNTVYLQMNSLKPEDTAVYYCAADVYTRFWRVYRFDYWGQGTQVTVSS | low polyreactivity
QVQLVESGGGLVQAGGSLRLSCAASGIFFIYSMGWYRQAPGKERELVADIDSGGPTYYADSVKGRFTISRDNAKNTVYLQMNSLKPEDTAVYYCAVDYSNVDLYSLLFYESDYWGQGTQVTVSS | low polyreactivity
